Columns and labels:
p70^S6k = test: In vitro kinase assay (GST-S6 substrate) of N2 anti-p70^S6k antiserum immunoprecipitates from mitogen-treated 293 cells; type: cell-based, human; conditions: EGF 250 ng/ml or insulin 200 nM for 20 minutes
Procedure: (§1) 293 cells were treated with serum (10%), EGF (250 ng/ml), or insulin (200 nM) for 20 minutes, lysed, and the lysates were immunoprecipitated with 167 anti-p54^S6K antiserum or with N2 anti-p70^S6k antiserum. Phosphorimager™ counts from an in vitro kinase assay of the immunoprecipitates using GST-S6 as the substrate are shown.
(§2) Antibodies were made using standard techniques, such as those described in Harlow and Lane (Antibodies: A Laboratory Manual, Cold Spring Harbor Press, New York. 1988). The cells were starved and then stimulated with serum, EGF, or insulin, or left unstimulated. Rapamycin or wortmannin were also incubated with the cells prior to serum stimulation when indicated.
(§3) Lysates from 293 cells transfected with HA-p54^S6K or HA-p54^S6K KR were immunoblotted with anti-HA Ab. (FIG. 3B bottom left panel). […] This is of interest since a majority of the p70^S6k phosphorylation sites are conserved in p54^S6K (FIG. 1B). […] Finally, the activation kinetics of p54^S6K and p70^S6k were compared.

p54^S6K = test: In vitro kinase assay (GST-S6 substrate) of 167 anti-p54^S6K antiserum immunoprecipitates from mitogen-treated 293 cells; type: cell-based, human; conditions: EGF 250 ng/ml or insulin 200 nM for 20 minutes
Procedure: as §1, §2, §3

With EGF the “p70^S6k kinase activity (activation by mitogen)” value (p70^S6k) was “only mildly activated” and the “p54^S6K kinase activity (stimulation by mitogen)” value (p54^S6K) was “to a small degree”.

insulin was tested, and the “p70^S6k kinase activity (activation by mitogen)” value (p70^S6k) was “strongly activated” and the “p54^S6K kinase activity (stimulation by mitogen)” value (p54^S6K) was “stimulated”.

Source: patent publication US6372467B1, “P54s6k and p85s6k genes, proteins, primers, probes, and detection methods” (President and Fellows of Harvard College, priority 1998, dated 2002)
